Assay results reported in paper PMC3364216, “The RuvA Homologues from Mycoplasma genitalium and Mycoplasma pneumoniae Exhibit Unique Functional Characteristics”.

Tests used:
RuvAMpn [1] = target: T1, RuvAMpn (Mycoplasma pneumoniae M129 (ATCC 29342), UniProt P75243 1-206); test: EMSA; no Mg2+; two complexes (I and II); 20 mM Tris-HCl pH 7.5, 1 mM DTT, 1 mM EDTA, 12.3 nM DNA, 10 ul, on ice 10 min; 8% PAGE in 0.5x TBE; +/- 10 mM Mg2+; conditions: protein: recombinant; tags: N-terminal H10 (pET-16b); chain copies: 4; four-way Holliday junction HJ11:HJ12:HJ13:HJ14
T1 sequence: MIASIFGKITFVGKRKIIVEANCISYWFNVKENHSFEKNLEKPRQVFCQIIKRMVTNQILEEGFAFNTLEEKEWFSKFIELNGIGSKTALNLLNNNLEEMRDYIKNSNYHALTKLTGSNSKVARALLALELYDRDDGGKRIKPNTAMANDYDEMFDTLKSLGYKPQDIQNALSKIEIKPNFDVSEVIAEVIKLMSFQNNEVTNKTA

RuvAMge [2] = target: T2, RuvAMge (Mycoplasma genitalium G37 (ATCC 33530), UniProt Q49424 1-205); test: EMSA; no Mg2+; single complex up to 4 uM protein; 20 mM Tris-HCl pH 7.5, 1 mM DTT, 1 mM EDTA, 12.3 nM DNA, 10 ul, on ice 10 min; 8% PAGE in 0.5x TBE; +/- 10 mM Mg2+; conditions: protein: recombinant; tags: N-terminal H10 (pET-16b); chain copies: 4; four-way Holliday junction HJ11:HJ12:HJ13:HJ14
RecUMge = RecUMge (Mycoplasma genitalium, UniProt Q49422 1-166); test: EMSA; on ice, no BSA; three major and one minor complex at 500 nM; 20 mM Tris-HCl pH 7.5, 1 mM DTT, 1 mM EDTA, 12.3 nM DNA, 10 ul, on ice 10 min; 8% PAGE in 0.5x TBE; +/- 10 mM Mg2+
RuvAMpn [3] = target: T1, RuvAMpn; test: EMSA; no Mg2+; part of the complexes is with residual ss HJ11; 20 mM Tris-HCl pH 7.5, 1 mM DTT, 1 mM EDTA, 12.3 nM DNA, 10 ul, on ice 10 min; 8% PAGE in 0.5x TBE; +/- 10 mM Mg2+; conditions: protein: recombinant; tags: N-terminal H10 (pET-16b); chain copies: 4; 5' overhang 1 nt on HJ11rv
RuvAMge [4] = target: T2, RuvAMge; test: as above; conditions: protein: recombinant; tags: N-terminal H10 (pET-16b); chain copies: 4; 5' overhang 1 nt on HJ11rv
RuvAMpn [5] = target: T1, RuvAMpn; test: EMSA; no Mg2+; efficiency similar to HJ; 20 mM Tris-HCl pH 7.5, 1 mM DTT, 1 mM EDTA, 12.3 nM DNA, 10 ul, on ice 10 min; 8% PAGE in 0.5x TBE; +/- 10 mM Mg2+; conditions: protein: recombinant; tags: N-terminal H10 (pET-16b); single strand

B1: HJ 1.1 (structured_DNA)
DNA 1: GCGACGTGATCACCAGATGATTGCTAGGCATGCTTTCCGCAAGAGAAGC
DNA 2: GGCTTCTCTTGCGGAAAGCATGCCTAGCAATCCTGTCAGCTGCATGGAAC
DNA 3: GGTTCCATGCAGCTGACAGGATTGCTAGGCTCAAGGCGAACTGCTAACGG
DNA 4: ACCGTTAGCAGTTCGCCTTGAGCCTAGCAATCATCTGGTGATCACGTCGC
B1: binds (RuvAMpn [1]); binds (RuvAMge [2]); binds (RecUMge).

B2: HJ11/HJ11rv (dsDNA)
DNA 1: B1 DNA 1
DNA 2: GGCTTCTCTTGCGGAAAGCATGCCTAGCAATCATCTGGTGATCACGTCGC
B2: binds (RuvAMpn [3]); binds (RuvAMge [4]).

GCGACGTGATCACCAGATGATTGCTAGGCATGCTTTCCGCAAGAGAAGC (ssDNA) [HJ11]: binds (RuvAMpn [5]).
